From the nanobody polyreactivity screen of Harvey et al. (2022) come the findings set out here.

The nature of the data set: yeast display, Sf9 membrane polyspecificity reagent, FACS + sequencing; frameworks hold sequencing errors. In outline:
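Nanobodies from a synthetic yeast display library (Saccharomyces cerevisiae BJ5465), induced 36–48 hours with galactose, were stained 1 hour at 4 °C with 10% biotinylated, detergent-solubilized Sf9 membrane reagent, enriched on streptavidin microbeads, then FACS-sorted. Anti-HA (expression) and streptavidin (reagent binding) fluorescence set low and high (top ~1%) gates. Polyreactivity labels come from the gate of origin. Genes were colony-PCR amplified, MiSeq 2 × 250 sequenced and filtered by CDR length.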
With “QVQLVESGGGLVQAGGSLRLSCAASGRTDVAKGMGRYRQAPGKEKEMVAAINDGDVTYYADSVKGRFTISRDNAKNTVYLQMNSLKPEDTAVYYCAADIIYGYEVYTYTSDYWGQGTQVTVSS”, the “polyreactivity (PSR sort gate)” value is on record as “low polyreactivity”.
Next, “QVQLVESGGGLVQAGGSLRLSCAASGRTFAAYAMGWYRPAPGKERELVAGITSSSVRTYYADSVKGRFTISRDNAKNTVYLQMNSLKPEDTAVYYRTARADGSSSRWRPYSKFYYWGQGTQVTVSS”: “low polyreactivity”.
Next, “QVQLVESGGGLVQAGGSLRLSCAASGRTFADYAMGWNRQAPGKEREFVAAITYSGGSTYYADSVKGRFTISRDNAKNTVYLQMNSLKPEDTAVYYCNARPGSSYWYDAQWGEYGYWGQGTQVTVSS”: “high polyreactivity”; “QVQLVESGGGLVQAGGSLRLSCAASGRTFAEYAMGWYRQAPGKERELVAAISKRGGSTYYADSVKGRFTISRDNAKNTVYLQMNSLKPEDTAVYYCNKVNRVPSYGHEVGYWGQGTQVTVSS”: “high polyreactivity”.
Next, “QVQLVESGGGLVQAGGSLRLSCAASGRTFAFNAMGWCRQAPGKDRELVAAISQGADSTYYADSVKGRFTISRDNAKNPVDLQMNSLKPEDTAVYYCAAEAQYNFYSYDYWGQGTQVTVSS”: “low polyreactivity”; “QVQLVESGGGLVQAGGSLRLSCAASGRTFAFNAMGWYRPAPGKERELVAAIRWSGGCTYYADSVKGRFTISRDSPKNTVSLQMNTLKPEDTAVYYCAAYEKRLGYDYWGQGTQVTVSS”: “high polyreactivity”.
As to “QVQLVESGGGLVQAGGSLRLSCAASGRTFAFYAMGWYRQAPGKERELVASIRGGGGTNYADSVKGRFTISRDNAKNTVYLQMNSLKTEDTAVYYCAARGYGYRGYYYWGQGTQVTVSS”, the “polyreactivity (PSR sort gate)” value is “high polyreactivity”.
Next, “QVQLVESGGGLVQAGGSLRLSCAASGRTFAFYAMGWYRQAPGKERELVASISSSGDRTYYADSVKGRFTISRDNAKNTVYLQMNSLKPEDTAVYYCAARWRYTYYYWGQGTQVTVSS”: “high polyreactivity”; “QVQLVESGGGLVQAGGSLRLSCAASGRTFAGNAMGWYRQATGKERELVASITWTGGRTYYADSVKGRFTISRDNAKNTVYLQMNSLKPEDTAVYYCAARPDYYYFRGDYWGQGTQVTVSS”: “high polyreactivity”; “QVQLVESGGGLVQAGGSLRLSCAASGRTFAINVMGWYRQAPGKEMELVASIRGRGGRTNYADSVKGRFTISRDNAKNSVYLQMNSLKPEDTAVYYCAAAYTGGGQYEYEYWGQGTQVTVSS”: “high polyreactivity”.
Turning to “QVQLVESGGGLVQAGGSLRLSCAASGRTFAIYAMGWYRQAPGKERELVATIRGGSTYYADSVKGRFTISRDNAKNTVYLQMNSLKPEDTAVYYCAAGWYRYYGGFGYWGQGTQVTVSS”, the “polyreactivity (PSR sort gate)” value is given as “high polyreactivity”.
Take “QVQLVESGGGLVQAGGSLRLSCAASGRTFALNTMGWYRQAPGKERELVAAITIGGSTYYADSVKGRFTISRDNAKNTVYLQMNSLKPEDTAVYYCAARTRGAWAYWGQGTQVTVSS”: the “polyreactivity (PSR sort gate)” value is “high polyreactivity”.
As to “QVQLVESGGGLVQAGGSLRLSCAASGRTFALYAMGWYRQAPGKERELVASISWRGGSTYYADSVKGRFTISRDNAKNTVYLQMNSLKPEDTAVYYCAADTWSYGPLNYRLEYWGQGTQVTVSS”, the “polyreactivity (PSR sort gate)” value was “low polyreactivity”.
For the sequence “QVQLVESGGGLVQAGGSLRLSCAASGRTFALYTMGWYRQAPGKERELVAAINWSGTSTYYADSVKGRFTISRDTAKNTVYLQMNSLKPEDTAVYYCNARGQYNRLMDYWGQGTKVTVSS”, the “polyreactivity (PSR sort gate)” value is on record as “low polyreactivity”.
In the case of “QVQLVESGGGLVQAGGSLRLSCAASGRTFANYAMGWYRQAPGKERELVAAISFSTVSTYYADSVKGRFTISRDNAKNTVYLQMNSLKPEDTAVYYCAARRLGYYRKVKELDYWGQGTQVTVSS” it was “high polyreactivity”.
Next, “QVQLVESGGGLVQAGGSLRLSCAASGRTFANYVMGWYRQAPGKERELVAGMTGSGGSTYYADSVKGRFTISRDNAKNTVYLQMNSLKPEDTAVYYCAKRYVYVASMGYWGQGTQVTVSS”: “high polyreactivity”; “QVQLVESGGGLVQAGGSLRLSCAASGRTFAPYAMGWSRQAPGKEREFVAGITWSSSSTYADSVKGRFTISRDNAKNTVYLQMNSLKPEDTAVYYCAARHAKGGNRHYYWGQGTQVTVSS”: “high polyreactivity”; “QVQLVESGGGLVQAGGSLRLSCAASGRTFAPYAMGWYRQAPGKERELVAAIRWTGTSTYYADSVKGRFTISRDNAKNTVYLQMNSLKPEDTAVYYCNADLYNREGWGQGTQVTVSS”: “high polyreactivity”.
Take “QVQLVESGGGLVQAGGSLRLSCAASGRTFARNAMGWYRQAPGKDRELVAAISSSGGSTYYADSVKGRFTISRDNAKNTVYLQMNSLKPEDTAVYYCAARSRHAYGYWGQGTQVTVSS”: the “polyreactivity (PSR sort gate)” value is “high polyreactivity”.
Next, “QVQLVESGGGLVQAGGSLRLSCAASGRTFARYAMGWYRQAPGKERDLVADITSGGSTNYADSVKGRFTISRDNAKNTVYLQMNSLEPEDTAVYYCAAYVVWSWFEEYEYWGQGTQVTVSS”: “high polyreactivity”.
In the case of “QVQLVESGGGLVQAGGSLRLSCAASGRTFARYTMGWYRQAPGKERELVASITRGGSTYYADSVKGRFTISRDNAKNTVYVQMNSLKPEDTAVYYCAARFPQHNYWAMDYWGQGTQVTVSS”, the “polyreactivity (PSR sort gate)” value was “high polyreactivity”.
In the case of “QVQLVESGGGLVQAGGSLRLSCAASGRTFARYVMGWYRQAPGKERELVASISNSGGSTYYADSVKGRFTISRDNAKNTVYLQMNSLKPEDTAVYYCARRYYSYTTYRYDYWGQGTQVTVSS” it was “high polyreactivity”.
On to “QVQLVESGGGLVQAGGSLRLSCAASGRTFASNALGWYRQAPGKERELVADISSSGGTTYYADSVKGRFTISRDNAKNTVYLQMNSLKPEDTAVYYCAAVSSQDDPVKAWDYDYWGQGTQVTVSS”, for which the “polyreactivity (PSR sort gate)” value is “low polyreactivity”.
Next, “QVQLVESGGGLVQAGGSLRLSCAASGRTFASNDMGWYRQAPGKERELVADINNGARTYYADSVKGRFTISRDNAKNTVYLQMNSLKPEDTAVYYCNARPWYWWEGRYDYWGQGTQVTVSS”: “high polyreactivity”; “QVQLVESGGGLVQAGGSLRLSCAASGRTFASYAMGWYRPAPGKEREFVAVISVNGGNTYYADSVKGRFTISRDNAKNTVYLQMNSLKPEDTAVYYCARFDGWYQGYYPLYEFDYWGQGTQVTVSS”: “high polyreactivity”; “QVQLVESGGGLVQAGGSLRLSCAASGRTFASYAMGWYRQAPGKERELVATIRRSGTSTYYADSVKGRFTISRDNAKNTVYLQMNSLKPEDTAVYYCAALRSLLYRTYGYWGQGTQVTVSS”: “low polyreactivity”.
On to “QVQLVESGGGLVQAGGSLRLSCAASGRTFATNVMGWYRQAPGKERELVAAISRSGGRTYYADSVKGRFTISRDNAKNTVYLQMNSLKPEDTAVYYCAARRRRFYYQYYRYDYWGQGTQVTVSS”, for which the “polyreactivity (PSR sort gate)” value was “high polyreactivity”.
Take “QVQLVESGGGLVQAGGSLRLSCAASGRTFAVYAMGWYRQAPGKERELVAAITRSGGSTYYADSVKGRFTISRDNAKNTVYLQMNSLKPEDTAVYYCAAGGQARHDYWGQGTQVTVSS”: the “polyreactivity (PSR sort gate)” value is listed as “low polyreactivity”.
Next, “QVQLVESGGGLVQAGGSLRLSCAASGRTFAWYAMGWYRQAPGKERELVAVIRRGSGDTYYADSVKGRFTISRDNAKNTVYLQMNSLKPEDTAVYYCAAKSVAYKTRAGGVRYESWGQGTQVTVSS”: “high polyreactivity”; “QVQLVESGGGLVQAGGSLRLSCAASGRTFAYNAMGWYRQAPGKERELVAAISGNGGRTYYADSVKGRFTISRDNAKNTVYLQMNSLKPEDTAVYYCNAAVGYYSYSYYTKVGVDYWGQGTQVTVSS”: “high polyreactivity”.
Turning to “QVQLVESGGGLVQAGGSLRLSCAASGRTFAYNAMGWYRQAPGKERELVADITSGGSTYYADSVKGRFTISRDNAKNTVYLQMNRLKPEDTAVYYCAAYPQFWYWDYNYWGQGTQVTVSS”, the “polyreactivity (PSR sort gate)” value is recorded as “high polyreactivity”.
In the case of “QVQLVESGGGLVQAGGSLRLSCAASGRTFAYNDRGWYRQATGKERELVAAISWSDGTTYYADSVKGRFTISRDNAKNTVYLQMYSLKPEDTAVYDCAAESYPAVVASYVSEFDYWGQGTQVPVSS” it was “low polyreactivity”; in that of “QVQLVESGGGLVQAGGSLRLSCAASGRTFAYNTMGWYRQAPGKERELVAAISTSGVRTFYADSVKGRFTISRDNAKNTVYLQMNSLKPEDTAVYSYDWGQGTQVTVSS”, “low polyreactivity”.
Next, “QVQLVESGGGLVQAGGSLRLSCAASGRTFAYYAMGWYKQAPGKERELVAAISWSGGSTYYADSVKGRFTISRDNAKNTVYLQMNSLKPEDTAVYYCAARRYGVPPTYDYWGQGTQVTVSW”: “high polyreactivity”; “QVQLVESGGGLVQAGGSLRLSCAASGRTFAYYAMGWYRQAPGKERELVAAIDSSGGSTYYADSVKARFTISRDNAKNTVYLQMNSLKPEDTADYYCAASYPYDRYDQGGYGYWGQGTQVTVSS”: “low polyreactivity”.
Take “QVQLVESGGGLVQAGGSLRLSCAASGRTFAYYVMGWYRPAPGKERQLVAAINRSDGSTSYADSVKGRFTISRDNAKNTVYLQMNSLKPEDTAVYYCAKSKPVGPYYYWGQGTQVTVSS”: the “polyreactivity (PSR sort gate)” value was “high polyreactivity”.
Next, “QVQLVESGGGLVQAGGSLRLSCAASGRTFCGNVMGWYRQAPGKERELVAAITNGASTNYADSVKGRFTISRDNAKNTVYLQMNSLKPEDTAVYYCAASANNWRRRGRSYEYWGQGTQVTVSS”: “low polyreactivity”; “QVQLVESGGGLVQAGGSLRLSCAASGRTFCRYPMGWYRQAPGKERELVAAISSSGITYYAESVKGRFTISRDNAKNTVYLQMNSLKPEDTEVYYCAVRWGRGFWGQGTQVTVSS”: “high polyreactivity”; “QVQLVESGGGLVQAGGSLRLSCAASGRTFDAYAMGWYRQAPGKERELVATITSGGGTYYADSVKGRFTISRDNAKNTVYLQMNSLKPEDTAVYYCKKRYVVSRKYDYWGQGTQVTVSS”: “low polyreactivity”.
“QVQLVESGGGLVQAGGSLRLSCAASGRTFDDYAMGWYIQAPGKERELVAGIRWSVGNTDYADSVKGRFTISRDNAKNTVYLQMNSLKPEDTAVYYCNARPFLTVLYLFYGNNYDYWGQGTQVTVSS”: the “polyreactivity (PSR sort gate)” value is “low polyreactivity”.
Regarding “QVQLVESGGGLVQAGGSLRLSCAASGRTFDEYAMGWYRQAPGKERELVDAINSSGNTYYADSVKGRFTISRDNAKNTVYLQMNSLKPEDTAVYYCAVRSYNTIYDDMDYWGQGTQVTVSS”, the “polyreactivity (PSR sort gate)” value was “low polyreactivity”.
